System: MS2 coat protein
Test: apparent KD of MS2 coat protein; designed switch direction (-1 OFF switch, 1 ON switch): -1; higher = weaker reporter binding
In short: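 An oligonucleotide input, 200 uM small-molecule ligand, or no input was present during titration of SNAP-549-labelled MS2 coat protein, which was doubled from 0.7 or 1.5 nM to 3 µM. Designed RNA switches had been transcribed on Illumina chips by stalled E. coli RNA polymerase. Apparent KD per design is the median over clusters of curves fitted to normalised cluster fluorescence.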

[1] = input ligand: microRNA oligo, concentration not stated
[2] = Eterna round: R95, input ligand: FMN 200 uM
[3] = Eterna round: R95, input ligand: microRNA oligo, concentration not stated
[4] = Eterna round: R95, input ligand: none

Sequence	apparent KD of MS2 coat protein (input ligand: FMN 200 uM) [nM]	apparent KD of MS2 coat protein [1] [nM]	apparent KD of MS2 coat protein (input ligand: none) [nM]	apparent KD of MS2 coat protein [2] [nM]	apparent KD of MS2 coat protein [3] [nM]	apparent KD of MS2 coat protein [4] [nM]
CAGUACUGAGGAUAUACAUGAGGAUCACCCAUGUGUCCUAGCUAGGAAACUAGCAUUAGUAGAAGGCAGUACUG [Fiskers Ex 3 828 mod 6] (Eterna round: R96, puzzle: Exclusion 3)	225	16.9	19.5	–	–	–
AUGAUAUAACAGGAUAUUUGGCGCGGAUGCAGAGAAGAAGGGUUGACAUGAGGAUCACCCAUGUGAUCCUUCAA [Eternabot (L1) Solution 18] (Eterna round: R97, puzzle: Exclusion 6)	20.1	–	14.3	–	–	–
UUUUGCUCAGGAUAUACAUGAGGAUCACCCAUGUAUAUUGAAGAUAAUACAUGGGAAUGUAGAAGGGAGCUCAU [Omei Ex3 Pseudoloop 19] (Eterna round: R97, puzzle: Exclusion 3)	73.5	–	156	–	–	–
CAGUACUGAGGAUAUACAUGAGGAUCACCCAUGUGUGUGCGUUUUGUAUGAAUGUUAUGUAGAAGGCGGUGCUG [JR_Ex3_Sub035] (Eterna round: R97, puzzle: Exclusion 3)	201	–	39.1	–	–	–
UAGCAUUGCCAAAGGUAGUGCUUUACAUGAGGAUCACCCAUGUAGGAUAUGGUAGGCAAAGCUUACCAGAAGGACAUGAUAAUU [Mat - Exclusion NG 3 - Mod of JL - D12] (Eterna round: R96, puzzle: Exclusion NG 3)	167	45.1	56.1	–	–	–
UAUAUAUAGUAAGGAUAUGUAAUUAUUUUAGAAACAGAAGGUACUGACAUGAGGAUCACCCAUGUUUUAGUGUGGGCAUGUAGA [JMF's solution 45] (Eterna round: R96, puzzle: Exclusion NG 1)	–	69.9	–	–	–	–
GAAUAGAGAGGAUAUGCGAAGUAGGUAGUAAGAUAUAUCUGACAUGAGGAUCACCCAUGUAGAAGGCUCAGAUC [EX2 #4] (Eterna round: R97, puzzle: Exclusion 2)	34.8	–	35.2	–	–	–
GCUAGAGCAGGAUAUCGAGAUCCGCACAUGAGGAUCACCCAUGUACGGUCGAAAGACCGACGAGAAGGGCUCUAGC [Omei Ex5 E10] (Eterna round: R97, puzzle: Exclusion 5)	178	–	186	–	–	–
GCCGGUGUUGCGGAUAAGCUUUUCUGCUCGUUUUAUCGCACAUGAGGAUCACCCAUGUCAUCCGUCAGCAUGCAAAC [Aredardi] (puzzle: Sensor v3, turn-off variant 2)	–	–	–	26	40.7	25.6
AAGAAACAUGAGGAUCACCCAUGUGAGGAUAUGAGCAAGAAAAGAAAAGAAAGAAGACUCAGAAGGCACAAAGG [salish99-ex1_r3_072] (puzzle: Exclusion 1)	–	–	–	90.2	110	106
AUUUUGUCAGGAUAUUGUUAGUUUAGUUGUUUGUAUUAGUUCGAGAAGGGACAUGAGGAUCACCCAUGUGAAAA [Ex4 #71] (Eterna round: R97, puzzle: Exclusion 4)	38.9	–	37.2	–	–	–
CAGUACUGAGGAUAUACAUGAGGAUCACCCAUGUGUCUUAUAUUAGGAAACUAGGUAUGUAGAAGGCAGUACUG [Omei Ex3 Mod of Eli 4.27 v4] (Eterna round: R97, puzzle: Exclusion 3)	304	–	62.1	–	–	–
CUUUCGUGAGGAUAUCAGUAGUAAUAAUAUAAAAUUACUACUGAGAAGGCACAUGAGGAUCACCCAUGUUCCUC [salish99_ex3_r3_101] (puzzle: Exclusion 4)	–	–	–	–	23.7	–
GACUGCAGAGGAUAUACAUGAGGAUCACCCAUGUGAGAUGCCUGACAGGUGUUGCUGAGUAGAAGGCUGCACUG [Onorveer] (puzzle: Exclusion 3)	–	–	–	–	13.2	–
GACUCGCACUGAGGAUAUCGAAACGAUACGUCGCGAGAAGGCAGAGCGAACAUGAGGAUCACCCAUGUGGGUUCGCCUGAUGUA [Geedinsoma] (Eterna round: R96, puzzle: Exclusion NG 1)	23.2	12.9	16.7	–	–	–
UUUUAACAUGAGGAUCACCCAUGUGAGGAUAUCGAAAUUUAUAUUUAUAUUAAUUAAUCGAGAAGGCACAUUUU [JMF 84] (puzzle: Exclusion 1)	–	–	–	–	150	–
GGGCUGUCAGGAUAUACAUGAGGAUCACCCAUGUCGAGCUAUGAUAGGGCAAGAGUAGGUAGAAGGGACGAGAG [JR_Exclu3_Sub043] (puzzle: Exclusion 3)	–	–	–	43.7	32.6	32.7

Sequence	apparent KD of MS2 coat protein (input ligand: FMN 200 uM) [nM]	apparent KD of MS2 coat protein [1] [nM]	apparent KD of MS2 coat protein (input ligand: none) [nM]	apparent KD of MS2 coat protein [2] [nM]	apparent KD of MS2 coat protein [3] [nM]	apparent KD of MS2 coat protein [4] [nM]
AAAAAAUUGAGAGGAUAUGGUGCCGAAACGGUGCUAGAAGGUUUUAUAAAAAAACAUGAGGAUCACCCAUGUUCAUGUAAAAAA [AK ExNG1-1] (Eterna round: R96, puzzle: Exclusion NG 1)	17.2	16.1	18	–	–	–
AUAAUUUAAGUGAGGAUAUACCUAUGGAAACAUAGGUAGAAGGCACAUGAGGAUCACCCAUGUUCCUAUACAUA [Fiskers BMX 4 - 3] (puzzle: Brourd's mod of Exclusion 4)	–	–	–	22.8	12	13.1
CAGUACUGAGGAUAUACAUGAGGAUCACCCAUGUGCUCGAAGUAGGAUACUACUAUUAGUAGAAGGCAGUACUG [Fiskers Ex 3 828 mod 22] (puzzle: Exclusion 3)	–	–	–	–	15.9	–
GGCGGGACAGGAUAUCUAGCACUAAACAUGAGGAUCACCCAUGUGGUGGUCGCAGGUGUCAGAGAAGGGUCAAAAG [Atenabe] (puzzle: Exclusion 5)	–	–	–	193	616	1480
AACGUGUAAGGAUAUCUGCUUAUGCUCAGCGAUACGCUGAUAGAGAAGGUACAUGAGGAUCACCCAUGUUCCAA [EX4 A.17] (Eterna round: R97, puzzle: Exclusion 4)	20.4	–	17.5	–	–	–
GAGAACUGAGGAUAUACAUGAGGAUCACCCAUGUGAAGAAGAAAGUAGUGAUGGUUGGGUAGAAGGCAGAGAGA [JR_Ex3_Sub065] (Eterna round: R97, puzzle: Exclusion 3)	52.4	–	46.3	–	–	–
GAGAAACAUGAGGAUCACCCAUGUAAGGAUAUGCUGAAAAUCACGGAUUAAUCGUGCAGCAGAAGGUACAAAGG [Mat - Mod of my Eli Mod D42] (puzzle: Exclusion 1)	–	–	–	142	110	143
GCUGCGCGAGGAUAUGCGGUUCGCGCGGUGGCCCGUGGCGGACAUGAGGAUCACCCAUGUAGAAGGCGUGCGGG [Apr-15 SS2-59] (puzzle: Exclusion 2)	–	–	–	–	11.2	–
GGUGCUGGCGCGUCGGUGUUGGUGCAAUAAGCUUGUGAAACAUGAGGAUCACCCAUGUCCUCGUGGGCUCGUCUUGU [salish99_TOv2_r2_090] (puzzle: Sensor v3, turn-off variant 2)	–	–	–	480	12.5	434
AGCGAUUCAGGAUAUACGGGUGGGCUGGAUCUUGGAGGAGUACAUGAGGAUCACCCAUGUAGAAGGGAAUUUUC [Eternabot (L2) Solution 35] (Eterna round: R97, puzzle: Exclusion 2)	95.5	–	40.2	–	–	–
GAUUAUGCGAGCUUUAGGGACAUGAGGAUCACCCAUGUUCGUCUUGUUGAUCUAGGUGCACUAACAUACCUAAAUCU [JMF 33] (puzzle: Sensor v3, turn-off variant 1)	–	–	–	24.7	28.7	22.6
GGGUCACAUGAGGAUCACCCAUGUGAGGAUAUGAUACUAUGUACUUCGGUACAUAGUAUCAGAAGGCACAUAAA [Ex1-3: 18] (puzzle: Exclusion 1)	–	–	–	–	36.6	–
AGCAGACGAGGAUAUGAUUAAUAAUACAUGAGGAUCACCCAUGUAAUACUGAUCUAUGGAUCAGAAGGCGUCUGCU [E5/6-A2] (Eterna round: R97, puzzle: Exclusion 5)	12	–	16.6	–	–	–
CUUCGACAUGAGGAUCACCCAUGUCAGGAUAUUGUGUAUCGGGUUUUUUACGGAUAGGCAAGAAGGGAUGUGUG [LRO-Excl1-06] (puzzle: Exclusion 1)	–	–	–	–	32.7	–
AAACCCAGAGGAUAUGCUGACUCCGACAUGAGGAUCACCCAUGUAGCGACUCUUCAUGCAGCAGAAGGUUGAUUUU [Eternabot (L1) Solution 66] (Eterna round: R97, puzzle: Exclusion 5)	235	–	271	–	–	–
GCGUACUGAGGAUAUACAUGAGGAUCACCCAUGUAACACAGCAUAUAUAGAUAUUUUUGUAGAAGGCAGUAUGC [JR_Ex3_Sub057] (Eterna round: R97, puzzle: Exclusion 3)	40.2	–	17.5	–	–	–

— the supplement of paper PMC9170038
